# Measurements as given in the RNAGym collection of RNA variant scans (doi:10.7554/elife.90254).
# B1: LINE1-full (parent)
# chain: UACGUAGGUGGUUUUCCCCUGAUAGUGCUAAGGGGGCCUGGAAGUUUGGACUGGGCAGAGCUCAACACAGCGUGGCAAAGUGGCUGUGGCUAGACUGCCUCUCUGGAUUCCUCGUCACUCAGCAGGGCAUCUCUGAGAGAAAUGCC
# Variants of: B1
# Assay: self-cleavage, relative activity (ratio to wild type); higher = more cleavage; in vitro, sequencing; the parent is a self-cleaving ribozyme
row,Variant,self-cleavage
1,U47A U104A,0.59
2,U47A U109A,1.74
3,U47A U112A,0.7
4,U47A U112C,1.15
5,U47A U119A,1.34
6,U47A U130C,1.51
7,U47A U132C,1.41
8,U47A U143A,1.27
9,U47A U143G,1.2
10,U47C A50C,0.94
11,U47C A50G,1.14
12,U47C A57U,0.29
13,U47C A59G,0.12
14,U47C A59U,0.6
15,U47C A64G,0.31
16,U47C A64U,0.52
17,U47C A65C,0
18,U47C A65G,0.09
19,U47C A69G,0.44
20,U47C A77G,2.3
21,U47C A77U,1.2
22,U47C A78C,1.96
23,U47C A78U,1.89
24,U47C A79G,1.39

row,Variant,self-cleavage
1,U47C A92U,0.77
2,U47C A94C,0.12
3,U47C A94U,0.52
4,U47C A107G,1.43
5,U47C A117C,1.96
6,U47C A121C,1.05
7,U47C A121G,1.92
8,U47C A121U,1.52
9,U47C A129G,1.49
10,U47C A136C,1.09
11,U47C A136U,1.24
12,U47C A138U,1.52
13,U47C A140U,0.6
14,U47C A142G,1.5
15,U47C C56U,0.42
16,U47C C63U,0.37
17,U47C C84G,0.11
18,U47C C84U,0.38
19,U47C C98U,0.52
20,U47C C111A,1.79
21,U47C C113A,1.78
22,U47C C118A,0.46
23,U47C C128U,1.42
24,U47C G53A,1.78

row,Variant,self-cleavage
1,U47C G60A,0.03
2,U47C G72A,0.94
3,U47C G75C,0.97
4,U47C G88A,0.07
5,U47C G89A,0.02
6,U47C G93U,0.04
7,U47C G105A,1.45
8,U47C G114A,1.66
9,U47C G126A,1.84
10,U47C G127A,1.31
11,U47C G127C,1.23
12,U47C U52A,1.72
13,U47C U62A,0.04
14,U47C U62C,0.12
15,U47C U73A,2.06
16,U47C U73C,1.55
17,U47C U73G,1.38
18,U47C U81C,1.51
19,U47C U85G,0.32
20,U47C U87A,0.12
21,U47C U96C,0.25
22,U47C U96G,0.05
23,U47C U100A,1.51
24,U47C U102A,1.84

row,Variant,self-cleavage
1,U47C U108C,1.62
2,U47C U108G,1.41
3,U47C U109A,1.6
4,U47C U109C,1.61
5,U47C U115C,2.06
6,U47C U119A,1.86
7,U47C U130A,1.31
8,U47C U130C,1.63
9,U47C U132A,0.93
10,U47C U132C,1.62
11,U47C U134A,1.34
12,U47C U143C,1.57
13,U47G A65C,0
14,U47G A77G,1.09
15,U47G A77U,0.94
16,U47G A79U,2.35
17,U47G A107G,1.24
18,U47G A124G,0.56
19,U47G A129U,0.53
20,U47G A136U,1.53
21,U47G A140G,0.71
22,U47G A140U,0.9
23,U47G A142C,1.25
24,U47G C113A,1.6

row,Variant,self-cleavage
1,U47G C146A,1.22
2,U47G C146U,1.69
3,U47G G48U,0.74
4,U47G G60A,0.02
5,U47G G97A,0.05
6,U47G G135A,0.79
7,U47G U52A,1.18
8,U47G U73C,2.66
9,U47G U81A,1.81
10,U47G U81C,0
11,U47G U85A,0.05
12,U47G U85C,0.33
13,U47G U91C,0.1
14,U47G U96C,0.21
15,U47G U112A,0.94
16,U47G U112C,0.8
17,U47G U119A,1.32
18,U47G U130C,1.24
19,U47G U134C,0
20,G48A A65G,0.03
21,G48A A69C,0.02
22,G48A A69G,0.3
23,G48A A77G,1.73
24,G48A A94G,0.13

row,Variant,self-cleavage
1,G48A A94U,0.18
2,G48A A117G,1.47
3,G48A A129G,1.54
4,G48A A136G,1.62
5,G48A A140G,1.02
6,G48A A141G,1.42
7,G48A C63U,0.36
8,G48A C131G,0.17
9,G48A G49U,0.57
10,G48A G93U,0.03
11,G48A G122A,1.27
12,G48A G125A,1.38
13,G48A G144U,1.46
14,G48A U102C,1.94
15,G48A U130A,0.91
16,G48A U132A,1.38
17,G48A U132C,1.29
18,G48A U134A,0.83
19,G48A U143A,1.64
20,G48C U91C,1.05
21,G48U A57U,0.08
22,G48U A64G,0.18
23,G48U A117G,1.13
24,G48U A129G,1.23

row,Variant,self-cleavage
1,G48U G88C,0.04
2,G48U U81A,1.8
3,G48U U85A,0.1
4,G49A A77U,0.86
5,G49A A79G,0.97
6,G49A A107G,0.73
7,G49A A117G,1.24
8,G49A A129G,1.69
9,G49A A129U,1.46
10,G49A A141G,1.64
11,G49A G82U,1.49
12,G49A G122C,1.28
13,G49A U73C,2.51
14,G49A U81A,1.95
15,G49A U87C,0.21
16,G49A U91G,0.04
17,G49A U96C,0.03
18,G49A U102C,1.11
19,G49A U119A,1.15
20,G49A U134A,1.05
21,G49A U134C,0.75
22,G49A U143C,1.09
23,G49A U143G,1.1
